In paper PMC6628001, “The Biochemical Activities of the Saccharomyces cerevisiae Pif1 Helicase Are Regulated by Its N-Terminal Domain”:

T1: Pif1ΔN (Saccharomyces cerevisiae, UniProt P07271 234-859, del1-233)
T1 sequence: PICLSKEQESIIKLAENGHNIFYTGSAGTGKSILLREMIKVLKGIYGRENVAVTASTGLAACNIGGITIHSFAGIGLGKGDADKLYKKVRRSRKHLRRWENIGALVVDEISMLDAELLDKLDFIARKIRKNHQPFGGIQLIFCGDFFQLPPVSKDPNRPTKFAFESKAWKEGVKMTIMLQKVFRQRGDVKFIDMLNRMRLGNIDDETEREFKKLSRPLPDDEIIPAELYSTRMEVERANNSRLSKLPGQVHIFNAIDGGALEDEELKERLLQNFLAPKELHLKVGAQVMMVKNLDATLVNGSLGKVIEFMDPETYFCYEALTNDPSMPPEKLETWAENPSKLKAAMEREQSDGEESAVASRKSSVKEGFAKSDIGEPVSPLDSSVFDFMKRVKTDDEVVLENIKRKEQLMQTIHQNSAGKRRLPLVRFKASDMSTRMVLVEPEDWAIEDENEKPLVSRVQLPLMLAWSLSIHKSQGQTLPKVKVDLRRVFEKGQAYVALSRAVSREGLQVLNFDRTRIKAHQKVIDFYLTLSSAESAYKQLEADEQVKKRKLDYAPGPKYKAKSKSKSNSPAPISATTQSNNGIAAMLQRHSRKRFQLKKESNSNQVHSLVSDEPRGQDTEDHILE

T2: Pif1 (full-length recombinant) (Saccharomyces cerevisiae, UniProt P07271 1-859)
T2 sequence: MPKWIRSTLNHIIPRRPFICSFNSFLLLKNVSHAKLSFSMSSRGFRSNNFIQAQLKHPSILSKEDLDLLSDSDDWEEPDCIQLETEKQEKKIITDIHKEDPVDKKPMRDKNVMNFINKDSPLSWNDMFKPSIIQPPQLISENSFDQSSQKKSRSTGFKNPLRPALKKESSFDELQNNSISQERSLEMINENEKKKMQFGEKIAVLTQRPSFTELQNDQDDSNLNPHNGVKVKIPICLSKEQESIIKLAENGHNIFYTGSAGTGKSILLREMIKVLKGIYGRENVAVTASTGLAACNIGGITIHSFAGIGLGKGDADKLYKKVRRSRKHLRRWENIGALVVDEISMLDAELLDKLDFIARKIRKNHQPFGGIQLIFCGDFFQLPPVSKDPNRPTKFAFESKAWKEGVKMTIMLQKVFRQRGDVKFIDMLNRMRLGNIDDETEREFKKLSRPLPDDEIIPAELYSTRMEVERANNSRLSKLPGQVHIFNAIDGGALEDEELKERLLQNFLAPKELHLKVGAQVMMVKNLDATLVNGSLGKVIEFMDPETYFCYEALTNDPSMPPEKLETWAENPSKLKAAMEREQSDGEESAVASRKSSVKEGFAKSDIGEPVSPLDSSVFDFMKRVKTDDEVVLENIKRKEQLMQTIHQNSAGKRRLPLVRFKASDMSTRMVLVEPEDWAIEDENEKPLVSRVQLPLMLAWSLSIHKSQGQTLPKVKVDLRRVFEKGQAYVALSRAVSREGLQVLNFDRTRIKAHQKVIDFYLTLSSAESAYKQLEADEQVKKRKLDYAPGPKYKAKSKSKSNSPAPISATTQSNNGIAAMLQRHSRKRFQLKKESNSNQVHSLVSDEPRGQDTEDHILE

B1: RNA-DNA hybrid fork (MB1572/MB1571) (DNA:RNA)
DNA: GAACGCTATGTGAGTGACACTGGGTCACCACACCCACACCACACC
RNA: GGUGUGGUGUGGGUGUGGUGUGGGUCACAGUGAGUGUAUCGCAAG
modifications: MB1571 is all RNA; MB1572 is DNA

What was measured:
Pif1ΔN = molecular target: T1, Pif1ΔN; experiment: EMSA; 7.5 mM Mg2+; 25 mM HEPES pH 8.0, 5% glycerol, 50 mM NaOAc, 150 μM NaCl (so in the source), 7.5 mM MgCl2, 0.01% Tween-20; 0.2 nM DNA; 30 °C 30 min; 4 mM ATP when present (not stated per row); conditions: protein: recombinant, tags: SUMO tag in expression construct (pSUMO-Pif1ΔN)
[1] = molecular target: T2, Pif1 (full-length recombinant); experiment: as above; conditions: protein: recombinant, tags: SUMO tag in expression construct (pSUMO-Pif1)
[2] = label: 32P on helicase loading strand (5' end, T4 PNK; MB1572 implied), fork 1:26-45 2:1-20, unpaired 5' DNA arm 25 nt and 3' RNA arm 25 nt

Row | Binder | Kd (Pif1ΔN; [2]) | Kd [1, 2] | Kd (Pif1ΔN; label: 32P (5' end, T4 PNK)) | Kd ([1]; label: 32P (5' end, T4 PNK))
1 | B1 | 0.135 ± 0.013 nM | 0.67 ± 0.085 nM |  | 
2 | CGCCATGCTGATCCGTGTGGTGTGTGTGGG (ssDNA) [Tel30] |  |  | 0.41 ± 0.031 nM | 
3 | TGTGGTGTGTGTGGG (ssDNA) [Tel15] |  |  | 0.39 ± 0.058 nM | 112 ± 12.7 nM
